Source: US20260258143A1 (ODYSSEY THERAPEUTICS, published 2026)
Residue numbers refer to the chain shown, from its start.

T1: human CD25-extracellular domain (CD25-ECD) (human, UniProt P01589 22-240)
T1 construct: also called human CD25-ECD; hCD25 ECD
T1 sequence: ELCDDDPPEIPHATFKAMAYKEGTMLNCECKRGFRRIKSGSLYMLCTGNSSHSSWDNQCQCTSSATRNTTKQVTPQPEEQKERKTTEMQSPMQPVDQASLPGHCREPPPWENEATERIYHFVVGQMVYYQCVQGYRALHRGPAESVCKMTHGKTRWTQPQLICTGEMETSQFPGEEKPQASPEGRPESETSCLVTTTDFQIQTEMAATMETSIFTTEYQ

B1: ODY-83B03Hu1 (VHH)
VHH: EVQLVESGGGLVQPGGSLRLSCAASGMPLVAMGWYRQAPGKQRELVASISSGGNTGYADSVKGRFTISRDNAKKTVYLQMNSVRPEDTGVYYCNIYRSQVPPTRYSWGQGTQVTVSS
notes: Captured on an SPR chip spot; also called ODY-83B03 humanized VHH
B2: ODY-83B05Hu1 (VHH)
VHH: EVQLLESGGGLVQPGGSLRLSCAASGFTLDYYAIGWFRQAPGKEREGVLSISSTDGRTYYADSVKGRFTISRDNPKNTVYLQLNSLRPEDTAVYYCAAKRLGPMVHRYSLEVLTPLFLDEYDYWGQGTQVTVSS
notes: Captured on an SPR chip spot; also called ODY-83B05 humanized VHH; ODY-83805Hu1
B3: ODY-83F07Hu1 (VHH)
VHH: B2 VHH with R107Q
notes: Captured on an SPR chip spot; also called ODY-83F07 humanized VHH

Target: T1, human CD25-extracellular domain …
Assay: SPR, V-body on chip, human CD25-ECD 500 nM then IL2-Fc 1000 nM
Method: The sensorgrams display IL2-Fc competition: association of human CD25-extracellular domain (ECD) to the V-body followed either by additional binding by IL2-Fc, Indicating an unoccupied epitope (non-overlapping epitopes), or no IL2-Fc binding, indicating epitope blocking (overlapping epitopes), and a buffer control, association and dissociation of human CD25-ECD in the absence of IL2-Fc. Human CD25-ECD was injected (500 nM) under physiological conditions (50 mM HEPES pH 7.4, 150 mM NaCl, 0.1% (w/v) BSA, 0.05% (v/v) Tween20, 25° C.) followed by human IL2-Fc (1000 nM). V-body ODY-83B03Hu1 was identified as a ligand competitive binder. ODY-83B05Hu1 and ODY-83F07Hu1 were identified as non-competitive binders.

Binding result, binds:
B1
B2
B3
